Measured values: the nanobody polyreactivity screen of Harvey et al. (2022)

Experiment: yeast display, Sf9 membrane polyspecificity reagent, FACS + sequencing; frameworks hold sequencing errors
Summary of the method: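 A synthetic nanobody library was expressed on Saccharomyces cerevisiae BJ5465 by galactose induction for 36–48 hours. The library was stained for 1 hour at 4 °C with 10% biotinylated, detergent-solubilized Sf9 membrane reagent and enriched with streptavidin microbeads before FACS. Low and high (top ~1%) gates were set on anti-HA fluorescence for expression and streptavidin fluorescence for reagent binding, and each polyreactivity label reflects the gate of origin.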
For “QVQLVESGGGLVQAGGSLRLSCAASGFIFYINAMGWYRQAPGKERELVAAISTSGGSTYYADSVKGRFTISRDNAKNTVYLQMNSLKPEDTAVYYCAAEGSYWYYSYDYWGQGTQVTVSS”, the “polyreactivity (PSR sort gate)” value was “high polyreactivity”.
In the case of “QVQLVESGGGLVQAGGSLRLSCAASGFIFYIYAMGWYRQAPGKERELVAAISRSSARTYYADSVKGRFTISRYNAKNTVYLQMISLKPEDTAVYDCAARYSGQWYRGPQYGYWGQGTQVTVSS”, the “polyreactivity (PSR sort gate)” value is reported as “high polyreactivity”.
For “QVQLVESGGGLVQAGGSLRLSCAASGFIFYKNAMGWYRKAPGKERELVAAISSRGGSTSYADSVKGRFTISRDNAKNTVYLQMNSLKREDTAVYYCAAYPDYSYYYWGQGTQVTVSS”, the “polyreactivity (PSR sort gate)” value was “high polyreactivity”.
With “QVQLVESGGGLVQAGGSLRLSCAASGFIFYKNTMGWYRQAPGKERELVAAITDGDHTNYADSVKGRFTISRDYAKNTVYLQMNSLKPEDTAVYYCAADYAWNYAFGYWGQGTQVTVSS” the “polyreactivity (PSR sort gate)” value was “low polyreactivity”.
In the case of “QVQLVESGGGLVQAGGSLRLSCAASGFIFYKYAMGWYRQAPGKERELVAAITWRGGRTNYADSVKGRFTISRDYAKNTVYLQMNSLKPEDTAVYYCAADPWSSSYYYSYEYWGQGTQVTVSS”, the “polyreactivity (PSR sort gate)” value is reported as “high polyreactivity”.
For “QVQLVESGGGLVQAGGSLRLSCAASGFIFYLYAMGWYRPAPGKERELVAAISRRGGSTYYADSVKGRFTISRDNAKNTVYLQMNSLKPEDTAVYYCAAYGDDGRDYWGQGTQVTVSS”, the “polyreactivity (PSR sort gate)” value was “high polyreactivity”.
In the case of “QVQLVESGGGLVQAGGSLRLSCAASGFIFYNYAMGWYRQAPGKERELVADINSTGITYYADSVKGRFTISRDNAKNTVYLQMNSLKPEDTAVYYCAKDILTSSYRAYSPFEYGYWGQGTQVTVSS”, the “polyreactivity (PSR sort gate)” value is reported as “low polyreactivity”.
For “QVQLVESGGGLVQAGGSLRLSCAASGFIFYQYAMGWYRQAPGKERELVAVINKSGGRTYYADSVKGRFTISRDNAKNTVYLQMNSLKPEDPAVYYCNAVSKLAVNLDYWGQGTQVTVSS”, the “polyreactivity (PSR sort gate)” value was “high polyreactivity”.
With “QVQLVESGGGLVQAGGSLRLSCAASGFIFYQYTMGWYRQAPGKERELVAAISSGGSTYYADSVKGRFTISRDNAKNTVYLQMNSLKPEDTAVYYCAAVAYGNWYRYYYWGQGTQVTVSS” the “polyreactivity (PSR sort gate)” value was “high polyreactivity”.
With “QVQLVESGGGLVQAGGSLRLSCAASGFIFYRNTKGWYRQAPGKEREFVAAIRWRGGSTYYADSVKGRFTISRDNAKNTVYLQMNSLNPEDTAVYYCNAPYKQDYDYWGQGTQVTVSS” the “polyreactivity (PSR sort gate)” value was “high polyreactivity”.
In the case of “QVQLVESGGGLVQAGGSLRLSCAASGFIFYRNTMGWYRQAPGKEREFVAAIRWRGGSTYYADPVKGRFTISRDNAKNTVYLQMNSLKPEDTAVYYCAADTRPGYSGFEYWGQGTQVTVSS”, the “polyreactivity (PSR sort gate)” value is reported as “high polyreactivity”.
For “QVQLVESGGGLVQAGGSLRLSCAASGFIFYRNVMGWYRQAPGKERELVAAISGSGGRTYYADSVKGRFTISRDNAKNTVYLQMNSLKPEDTAVYYCAADASLEGDYWGQGTQVTVSS”, the “polyreactivity (PSR sort gate)” value was “high polyreactivity”.
For “QVQLVESGGGLVQAGGSLRLSCAASGFIFYRYAMGCYRQAPGTEREFVAAISFRDGITYADSVKGRFTISRDNAKNTVYLQMNTLKPEDTAVYYCNAALSQLRRGGLAMDYWGQGTQVTVSS”, the “polyreactivity (PSR sort gate)” value was “low polyreactivity”.
For “QVQLVESGGGLVQAGGSLRLSCAASGFIFYRYAMGWYRPAPGKVRELVAAINWSGGGTYYADSVKGRFTISRDHAKNTVYLQKNSRKPEETAVYYCAAGRSFRGSYWYEYCGQGTQVTVSS”, the “polyreactivity (PSR sort gate)” value was “high polyreactivity”.
For “QVQLVESGGGLVQAGGSLRLSCAASGFIFYRYAMGWYRQAPGKEREFVAAISRSGGSTYYADSVKGRFTISRDNAKNTVYLQKNSLKPEDTAVYYCNTYQHGYYVAEYDYWGQGTQVTVSS”, the “polyreactivity (PSR sort gate)” value was “high polyreactivity”.
For “QVQLVESGGGLVQAGGSLRLSCAASGFIFYRYAMGWYRQAPGKERELVAAIRGGGSTYYADSVKGRFTISRDNAKTTVYLQMNSLKPEDTAVYYCNAVYGVRPNRYHYDYWGQGTQVTVSS”, the “polyreactivity (PSR sort gate)” value was “low polyreactivity”.
For “QVQLVESGGGLVQAGGSLRLSCAASGFIFYRYAMGWYRQAPGKERELVSAISYRGGSTYYADSVKGRFTISRDNAKNTVYLQMNSLKPEDTAVYYCAASLRYYGLEMDYWGQGTQVTVSS”, the “polyreactivity (PSR sort gate)” value was “high polyreactivity”.
For “QVQLVESGGGLVQAGGSLRLSCAASGFIFYRYAMGWYRQAPGKESELVAAISWGGGSTTYYADSVKGRFTISRDNAKNTVYLQMNSLKPEDTAVYYCAAYIVKGYGSEYYYWGQGTQVTVSS”, the “polyreactivity (PSR sort gate)” value was “low polyreactivity”.
With “QVQLVESGGGLVQAGGSLRLSCAASGFIFYRYAMGWYRQAPGNERELVAAISRSGGSTYYADSVKGRFTISRDNAKNTVYLQMNSLKPEDTAVYYCATPGQRKLYLVNYLGQGTQVTVSS” the “polyreactivity (PSR sort gate)” value was “low polyreactivity”.
For “QVQLVESGGGLVQAGGSLRLSCAASGFIFYRYAMVWYRQAPGKEREFVARISANGGRTYYADSVKGRFTISRDNAKNTVYLQMNSLKPEDTAVYYCNAGRYATPYNYWGQGTQVTVSS”, the “polyreactivity (PSR sort gate)” value was “high polyreactivity”.
For “QVQLVESGGGLVQAGGSLRLSCAASGFIFYRYTMGWSRQAPGKERELVAGSSSRGTRTYYADSVKGRFTISRDNAKNTVYLQMNSLKPEDTAVYYCAKVDGSKRYNYWGQGTQVTVSS”, the “polyreactivity (PSR sort gate)” value was “high polyreactivity”.
For “QVQLVESGGGLVQAGGSLRLSCAASGFIFYRYTMGWYRQAPGKERELVASISSGGSTNYADSVKGRFTISRDNAKNTVYLQMNSLKPEDTAVYYCAASRFRWVQRYDYWGQGTQVTVSS”, the “polyreactivity (PSR sort gate)” value was “high polyreactivity”.
With “QVQLVESGGGLVQAGGSLRLSCAASGFIFYSNAMGWYRQEPGKERELLADINRGGTSTYYADSVKGRFTISRDNAKNTVYLQMNSLKPEDTAVYYCNAGLRYRSRLWNIYWYDYWGQGTQVTVSS” the “polyreactivity (PSR sort gate)” value was “high polyreactivity”.
For “QVQLVESGGGLVQAGGSLRLSCAASGFIFYSYAMGWYRQAPGKERELVAAISSSGRTNYADSVKGRFTISRDNAKNTVYLQMNSLKPEDTAVYYCNVVRWHGYRVGRYDYWGQGSQVTVSS”, the “polyreactivity (PSR sort gate)” value was “high polyreactivity”.
With “QVQLVESGGGLVQAGGSLRLSCAASGFIFYSYDMGWYRQAPGKERELVAAIDSRGVNTYFADSVKGRFTISRDNAKNTVYLQMNSLKPEDTAVYYCNVDAITWWDWEDFDSWGQGTQVTVSS” the “polyreactivity (PSR sort gate)” value was “low polyreactivity”.
With “QVQLVESGGGLVQAGGSLRLSCAASGFIFYTNAMAWYRQAPGNERQLVATLTTSGGRTYYADSVKGRFTISRDNAKNSVYLQMNSLKPEDTAVYYCATRYVVIEYDYWGQGTEVTVSS” the “polyreactivity (PSR sort gate)” value was “low polyreactivity”.
In the case of “QVQLVESGGGLVQAGGSLRLSCAASGFIFYTYAMGWYRQAPGKERELVAGINSGGDTNYADSVKGRFTISRDNAKNTVYLQINSLKPEDTAVYYCAATSYVHKYYGYFGAIKYEYWGHGTQVTVSS”, the “polyreactivity (PSR sort gate)” value is reported as “low polyreactivity”.
In the case of “QVQLVESGGGLVQAGGSLRLSCAASGFIFYYAMGWYRQAPGKERELVAAISSGSSTYADSVKGRFTISRDNAKNTVYLQMNSLKPEDTAVYYCATRYSSWYSNRDYDYWGQGTQVTVSS”, the “polyreactivity (PSR sort gate)” value is reported as “low polyreactivity”.
With “QVQLVESGGGLVQAGGSLRLSCAASGFIFYYYAMGWYRQAPGKERELVAAITGSGGNTYYADSVKGRFTISRDYAKNTVYFQMNSLKPEDTAFYYCNTGYDWGGDYWGQGTQVTVSS” the “polyreactivity (PSR sort gate)” value was “high polyreactivity”.
In the case of “QVQLVESGGGLVQAGGSLRLSCAASGFIFYYYAMGWYSQAPGKERELVARISRGGSTYYADSVKGRFTISRDNAKNTVYLQMNSLKPEDTAVYYCAKVSIARIKTRYNYWGQGTQVTVSS”, the “polyreactivity (PSR sort gate)” value is reported as “high polyreactivity”.
In the case of “QVQLVESGGGLVQAGGSLRLSCAASGFIFYYYDMGWYRQAPGKERELVAAISFDGDSTYYADSVKGRFTISRDNAKNTVYLQMNSLKPEDTAVYYCAARDYRYRYGYWGQGTQVTVSS”, the “polyreactivity (PSR sort gate)” value is reported as “high polyreactivity”.
In the case of “QVQLVESGGGLVQAGGSLRLSCAASGFIIDPNAMGWYSQAPGKERDLVAAISSSGGRTYYADSVKGRFTISRDNAKNTVYFQLNSLKPEDTAVYYCATDTSVQGQEYDYWGKGTQVTVSS”, the “polyreactivity (PSR sort gate)” value is reported as “low polyreactivity”.
With “QVQLVESGGGLVQAGGSLRLSCAASGFIIGYYAMGWYRQAPGKERELVASIRRGGSTYYADSVKGRFTISRDNAKNTVYLQMNSLKPEDTAVYYCAVPYSRFSAFRRWVKYDYWGQGTQVTVSS” the “polyreactivity (PSR sort gate)” value was “high polyreactivity”.
With “QVQLVESGGGLVQAGGSLRLSCAASGFIIIGYVMGWYRQAPGKERELVAAITSSGGSTYYEDSVKGRFTISRDNAKNTVYLQMNSLKPEDTAVYYCAAEYYLLWSGMEYWGQGTQVTVSS” the “polyreactivity (PSR sort gate)” value was “low polyreactivity”.
With “QVQLVESGGGLVQAGGSLRLSCAASGFIIIGYVMGWYRQAPGNERELVAAITSSGSGTYYADSVKGRVTISRDNAKNTVYLQMNSLKPEDTAVYYSAAQVRYGTATYHVSSYHYTRYGYWGQATQVTVSS” the “polyreactivity (PSR sort gate)” value was “low polyreactivity”.
With “QVQLVESGGGLVQAGGSLRLSCAASGFIIKYYAMGWYRQAPGKERELVAAISSGGRTYYADSVKGRFTISRDNAKNTVYLQMNSLKPEDTAVYYCAKTFRKSYDWGQGTQVTVSS” the “polyreactivity (PSR sort gate)” value was “high polyreactivity”.
In the case of “QVQLVESGGGLVQAGGSLRLSCAASGFIINKYTMGWYRQAPGKERELVAAITWSGGTTYYADSVKGRFTISRDNAKNTVYLQMNSLKPEDTALYYCAAYYYRGRVCAYDYWGQGTQVTVSS”, the “polyreactivity (PSR sort gate)” value is reported as “high polyreactivity”.
With “QVQLVESGGGLVQAGGSLRLSCAASGFIIRYYTMGWSRQAPGKERELVAVITSGGTTYYADSVKGRFTISRDNAKNTVYLQMNSLKPEDTAVYYCAADYRPRLDGVGVDYWGQGTQVTVSS” the “polyreactivity (PSR sort gate)” value was “low polyreactivity”.
With “QVQLVESGGGLVQAGGSLRLSCAASGFIISGNAMGWYRQAPGKERELVASISRSGGSTYYADSVKGRFTISRDNAKNTVYLQMNSLKPEDTAVYYCNARYYAIGQFNYWGQGTQVTVSS” the “polyreactivity (PSR sort gate)” value was “low polyreactivity”.
In the case of “QVQLVESGGGLVQAGGSLRLSCAASGFIISPYAMGWYRQAPGKERELVAAISWSGVSTYYADSVKGRFTISRDNAKNTVYLQMNSLKPEDTAVYYCATYRTVYYWGQGTQVTVSS”, the “polyreactivity (PSR sort gate)” value is reported as “high polyreactivity”.
With “QVQLVESGGGLVQAGGSLRLSCAASGFILAYYAMGWYRQAPGKERELVAAISIGSSTDYADSVKGRFTISRDNAKNTVYLQMNSLKPEDTAVYYCAATYVYWTWGYDYWGQGTQVTVSS” the “polyreactivity (PSR sort gate)” value was “low polyreactivity”.
With “QVQLVESGGGLVQAGGSLRLSCAASGFILAYYEMGWYRQAPGKERELVAAISIGSSTDYADSVKGRFTISRDNAKNTVYLQMNSLKPEDTAVYYCAARDYYYEYDYWGQGTQVTVSS” the “polyreactivity (PSR sort gate)” value was “low polyreactivity”.
In the case of “QVQLVESGGGLVQAGGSLRLSCAASGFILDRYAMGWYRQAPGKERELVASITSGGSTNYADSVKGRFTISRDNAKNTVYLQMNSLIPEDTAVYYCAAYPWRYWNHEYNYWGQGTQVTVSS”, the “polyreactivity (PSR sort gate)” value is reported as “high polyreactivity”.
